Test results published in patent publication US20260265360A1, “USE OF ANTI-FAM19A5 ANTAGONISTS FOR TREATING HEARING DISORDERS” (NEURACLE SCIENCE CO., LTD., priority 2023, published 2026).

What was measured:
[1] = tested on: noise-induced hearing loss mouse model; test: Noise-induced hearing loss mouse model, first antibody dose 2 hours post noise exposure; assay type: in vivo; conditions: first dose 2 hours post noise
Procedure: FIGS. 13A, 13B, 13C, 13D, and 13E show the therapeutic effect of FAM19A5 antagonists (administered 2 hours after noise induction) on auditory brainstem response (ABR) threshold in a noise-induced hearing loss mouse model. The overall design was similar as that provided in FIG. 6A, except that the antibodies were administered to the animals at 2 hours post noise induction. FIG. 13A provides the results before noise exposure. FIG. 13B provides the results at one day post noise exposure. FIG. 13C provides the results at two weeks post noise exposure. FIG. 13D provides the results at four weeks post noise exposure. FIG. 13E provides the results at eight weeks post noise exposure. ABR threshold was measured at a frequency ranging from 4 kHz to 64 kHz.
FIGS. 14A and 14B show the effect of FAM19A5 antagonists on ABR I/O function in a noise-induced hearing loss mouse model. FIG. 14A provides comparisons of wave I amplitude (1st graph) and wave IV amplitude (2nd graph) in animals treated with the anti-FAM19A5 antibody (square), before noise group (triangle) or control IgG antibody (circle) 2 weeks after noise exposure. FIG. 14B provides comparisons of wave I amplitude (1st graph) and wave IV amplitude (2nd graph) in animals treated with the anti-FAM19A5 antibody (square), before noise group (triangle) or control IgG antibody (circle) 4 weeks after noise exposure. Tone bursts were measured across 0 and 90 dB.
Next, to assess whether the timing of the anti-FAM19A5 antibody administration has an effect, the above-described noise-induced hearing loss mouse model was used again. Again, to induce hearing loss, the animals were exposed to a temporary threshold shift (TTS) of 105 decibels for 30 minutes. An anti-FAM19A5 antibody (1-30 antibody) or a control human IgG antibody was intravenously administered to the animals once weekly for 5 total administration (30 mg/kg per dose). […] Hearing loss was assessed (e.g., by measuring ABR threshold, DPOAE threshold, and/or DPOAE amplitude) in the animals prior to the noise exposure and then again at one day, two weeks, and four weeks post noise exposure.

[2] = tested on: inner hair cells of mouse cochlear explants; test: Promotion of synaptogenesis (CtBP2 puncta); assay type: cell-based; conditions: antibody 1 μM
Procedure: Cochlear explant were cultured in medium consisting of plating media, which consist of Neurobasal media (Invitrogen), 1% N2 supplement, and 10 μg/mL Ampicillin with culture media with additional 1% FBS.
Postnatal day 4-5 (P4-5) C57BL/6 mice were sacrificed for inner ear dissection. Mouse head was bisected, and brain tissue was removed. Cochlea was carefully separated the from the extraneous bones in ice-cold HBSS (5 mM HEPES/1.3 mM CaCl2), 0.9 mM MgCl2, pH 7.4) or External solution (1.2 mM CaCl2), 1 mM MgCl2, 5 mM HEPES in HBSS). Then the stria vascularis and spiral bone plate was removed, and cochlea was cut into two to three sections. […]
Mouse cochlear explant cultures were treated with FAM19A5, FAM19A5 combined with a FAM19A5 antagonist (e.g., described herein, e.g., 1-30 antibody), or a FAM19A5 antagonist (e.g., described herein, e.g., 1-30 antibody) alone at 1 DIV to determine the level of synaptogenesis at 2 DIV by immunostaining CtBP2, a ribbon synapse marker. To quantify the number of CtBP2 puncta of individual inner hair cells, z-stack confocal images were exported in “multi-page” and the number of CtBP2 puncta from each individual inner hair cells were measured using ROI manger and multi-point tool from Fiji (Image J). Number of CtBP2 puncta from five individual inner hair cells were counted per image and 3 z-stack images were measured from each treatment group. […]

[3] = 2 and 4 weeks after noise, particularly at higher tone-burst levels

B1: 1-30: anti-FAM19A5 antibody, de-immunized variant of 3-2; VH SEQ ID NO: 235, VL SEQ ID NO: 240 (antibody, V domains shown)
VH: AVTLDESGGGLQTPGGALRLSCKASGFDFESFNMFWVRQAPGKGLEYVSQISSSEEDENYAPAVKGRATISRDNGQSTLYLQMNSLRAEDTGTYYCAKSSYDCPYGHCSSGVDSAGEIDAWGHGTEVIVSS
VL: ALTQPSSVSANPGETVKITCSGGGSEEEQYYYGWYQQKPGSAPVTLIYQDEERPSDIPSRFSGSTSGSTATLTITGVQAGDEADYYCGSWDSEDEDHFGAGTTLTVL
modifications: Low-PI VH, 1-30 VH, 1-17 VH, 1-32 VH, 4-11 VH, 6-10 VH; 1-30 VL
[1]; 30 mg/kg i.v. weekly x5
  ABR threshold vs control antibody: did not appear to be any significant differences
[1]; [3]
  Wave I amplitude vs control antibody: noticeable differences were observed
  Wave IV amplitude vs control antibody: noticeable differences were observed
[2]
  number of CtBP2 puncta within the inner hair cells vs control human IgG: significant increase
